# Measured values from PMC10869273 (Nature Biotechnology, 2023).
# Molecular target: SARS-CoV-2 Omicron BA.1 receptor-binding domain (RBD) (SARS-CoV-2 Omicron BA.1, strain, biotin on the AviTag (expressed in the presence of BirA))
binder,measurement,value
"REGN10987 VH R16G-V108D (antibody, V domains shown) VH: QVQLVESGGGVVQPGGSLRLSCAASGFTFSNYAMYWVRQAPGKGLEWVAVISYDGSNKYYADSVKGRFTISRDNSKNTLYLQMNSLRTEDTAVYYCASGSDYGDYLLDYWGQGTLVTVSS VL: QSALTQPASVSGSPGQSITISCTGTSSDVGGYNYVSWYQQHPGKAPKLMIYDVSKRPSGVSNRFSGSKSGNTASLTISGLQSEDEADYYCNSLTSISTWVFGGGTKLTVL",binding result,binds
